Consider 3 substances from patent US8168188.

The target in assay [1] is amyloid β monomers (length not stated) (UniProt P05067). Briefly: assay not stated.
The target in assay [2] is amylospheroid 40 (Homo sapiens (Human)) (UniProt P05067). Briefly: SPR (BIAcore 3000), amylospheroid coupled to CM5 chip, antibody in solution. (SPR reads the build-up and loss of mass on a sensor chip optically.)
Assay [3] concerns the target amylospheroid 42 (Homo sapiens (Human)) (UniProt P05067). Described as above.

In assay [1], “commercialized N-terminal antibodies 82E1 (IBL) (antibody)” had a reactivity with amyloid β monomers relative to reactivity with amylospheroid of 2 fold. Usually Kd stands for a measure of binding affinity in units of concentration. As for “commercialized anti-amyloid β antibody 4G8”, the Kd in assay [2] was 1.7 nM; in assay [3], 3.2 nM. “commercialized anti-amyloid β antibody 6E10” showed a Kd in assay [2] of 2.9 nM.
